Measured values: FireProtDB (doi:10.1006/jmbi.1995.0599)

Conditions: Homo sapiens; pH 2.7; Thermal; DSC; glycine 0.05 M; reversible: yes; whole UniProt chain shown

B1: Lysozyme C wild type, P61626 (protein)
chain: MKALIVLGLVLLSVTVQGKVFERCELARTLKRLGMDGYRGISLANWMCLAKWESGYNTRATNYNAGDRSTDYGIFQINSRYWCNDGKTPGAVNACHLSCSALLQDNIADAVACAKRVVRDPQGIRAWVAWRNRCQNRDVRQYVQGCGV
Tm: 64.9 °C | heat capacity change of unfolding: 1.58 kcal/mol/K | unfolding enthalpy (calorimetric): 114 kcal/mol | unfolding enthalpy (van 't Hoff): 120 kcal/mol
